Experimental data: the supplement of paper PMC12764529
± gives the half width of the 95% confidence interval.

How the values were obtained:
[1] = folding stability dG unfold (combined trypsin and chymotrypsin); higher = more stable
Method in brief: (§1)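 Unfolding free energy was derived, per protease or combined, by relating Bayesian-fitted K50 values from sequencing counts to a sequence-predicted unfolded-state K50 and a shared folded-state K50. The underlying digests exposed cysteine-free mini-proteins under 80 residues, in a PA-tagged cDNA display construct, to trypsin and chymotrypsin at 11 threefold-diluted concentrations and to a no-protease condition. A filter kept only designs with AlphaFold2 dimer inter-PAE above 15.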

[2] = folding stability dG unfold from chymotrypsin proteolysis; higher = more stable
Method in brief: as §1

[3] = folding stability dG unfold from trypsin proteolysis; higher = more stable
Method in brief: as §1

Sequence	folding stability dG unfold [1] [kcal/mol]	folding stability dG unfold [2] [kcal/mol]	folding stability dG unfold [3] [kcal/mol]
KSKEEQKEQQEEQQKPPPVEIKVEVEVVKSPNGNPYFQFNVEYYDPGDGEPIGEITISVPPDDVDELADEFS [r1_415_TrROS]	2.46 ± 0.71	2.63 ± 0.25	1.97 ± 0.4
SAGGSAGGSPTYTIDVEKYPDGYYFLKIWMPGHNRKIEHPIPPDNPDKIDEITITPNGKIKIDSAGGSAGGS [r20_11_TrROS]	0.263 ± 0.17	0.309 ± 0.24	0.161 ± 0.13
SAGGSAGGSAGGGSMPVTERIPGSPSSVTTTTFPDGTVTTETTAGPPVTLSPAGGSTLVSAGGSAGGSAGGS [r10_664_JUSTAS]	1.08 ± 0.11	1.09 ± 0.058	0.97 ± 0.073
SAGGWITVNQIRDLAKELPPGWRIKIKIEYPGKKHEHTIPPGDPITIPPNMPPEDITRIEITEIEPYSAGGS [r16_97_TrROS]	0.575 ± 0.11	0.444 ± 0.18	0.476 ± 0.062
SAGGSAGGGDEVKTFKAKVKLVSVDPETGEQLVLAEVPDGKPILVKVPKSFPLKEDEIVEFELSSAGGSAGG [r6_68_TrMRF]	1.3 ± 0.059	1.31 ± 0.036	1.16 ± 0.027
SMVTSETRETVTVTLPDGTVVTVTVTTHRPADGVPTATVTVTTTSADGTPTTSTHTFPAAEAPALIAAALSA [r9_189_JUSTAS]	2.35 ± 0.086	1.96 ± 0.044	2.84 ± 0.13
SAGGSAGGSAAVPVSETPLGTLPDGRRVRLRRYRDPDGNLYTFLEVEPLPRPLSPADLEKAAASAGGSAGGS [r12_775_TrMRF]	1.68 ± 0.1	2.06 ± 0.12	0.492 ± 0.19
SAGTITADDITEIEMQWDPGNGYVQIEIEFPNGYTVNAWMPNDKIEIEVWYPNGKKVEIEFEIKPPGASAGG [r19_121_TrROS]	2.39 ± 0.38	2.74 ± 0.18	1.72 ± 0.22
SAGGSVDIKRIEIYHPPDDKIYIRIDAVASPEHPEDPELRKAQAEALRKPVIEELMKKLGIEPEELSAGGSA [r2_306_JUSTAS]	0.468 ± 0.12	0.61 ± 0.073	0.241 ± 0.075
SAGGSAGGSKAKIEVLEVFPDYIVYKIETENPVIAVIVPLPNGKVKIFVFNPNGEPIAEFELGSAGGSAGGS [r12_1061_TrMRF]	3.4 ± 0.17	3.88 ± 0.062	2.04 ± 0.18
SAGGSAGGTFEFFFPDGLYFTVEFRIVEMHPNPGNGQMHMRMEATIKIIPLPPPPPPPKDPGDKSAGGSAGG [r6_939_TrROS]	3.83 ± 0.2	4.3 ± 0.12	2.71 ± 0.087
SAGGSAGGSGSSTEVTTTTLPDTSYTTTNSTTTTFSPDQPEAVEAGLPVPSTVTTTTTTSPAGSAGGSAGGS [r20_138_JUSTAS]	0.59 ± 0.12	0.0599 ± 0.1	0.918 ± 0.056
SAGGSAGGPLPLEELRRLLESRPDYEILSVEDESPDYVVVTVRFPFPLPSDEERTLRLRLRFPLSAGGSAGG [r6_152_TrMRF]	3.08 ± 0.094	3.374 ± 0.031	2.23 ± 0.056
SAGGSAGGLEIVLPREELEELIRRGEIDEVEIERSEDDLVRARPIIRPPPPLPPEVGALLRALASAGGSAGG [r6_278_TrMRF]	1.56 ± 0.37	1.91 ± 0.088	0.891 ± 0.2
SAGGGSMEEARRLIEEIAEEVKAKGVKVKVRITFGPDPKVLSIEIFSPDEPIVDNGGPGLVTLTFDIPSAGG [r13_693_JUSTAS]	2.55 ± 0.063	2.778 ± 0.023	2.07 ± 0.057
SASMTYTVTVTVSVKNPDGTPIGTIPITRTMNLDEAKVIVEKEIKKTVDELFPGKPANVTVDTTVTPLPSAG [r14_570_JUSTAS]	0.899 ± 0.27	1.6 ± 0.42	0.482 ± 0.13
SAGGGEYYAIVRIEVKDPESEETSELELVIPVEGLSEEEALEIARAIAETFPKENVKAEVEIVPRELSAGGS [r16_774_TrMRF]	0.936 ± 0.11	0.896 ± 0.16	1.05 ± 0.043
SMVQGTVLPPNGQRLTFEFDPAGTAQERAEQVRALLEALLPPDLKIEVERVEPDRPISADEPGTVLARADSA [r9_178_TrMRF]	-0.248 ± 0.28	0.0574 ± 0.19	-0.914 ± 0.56
SAGGSMKIKVEYEELPNGKMVIRIDIPPEENNMTPEQVETIAKEIAEEFPNVKVETTPGSIWIRVPSAGGSA [r2_256_TrROS]	1.24 ± 0.16	1.21 ± 0.2	1.38 ± 0.1
SAGGESYPFIGRNPETNALIEVTVTKLESGEYLVNATITNPNGETVEFPFTFPANSLTPESEIDVTITSAGG [r13_959_TrMRF]	1.44 ± 0.054	1.21 ± 0.074	1.65 ± 0.051
SAGGSAGGSAGMLARITLSTPEKPVEYIVPESEVEEYIKKLNLPEDTEVTVTPVDPAALLSAGGSAGGSAGG [r17_395_JUSTAS]	1.4 ± 0.037	1.8 ± 0.032	0.574 ± 0.022
